Binding result, EC50 and mean fluorescence data for two molecules are collected here from patent US20180142032A1 (Sanofi, published 2018).

For assay [1], the target named is T1, mLAMP1::histag (mouse, UniProt P11438 25-369).
T1 construct: also called mouse LAMP1 (25-369); Mouse LAMP1
T1 sequence: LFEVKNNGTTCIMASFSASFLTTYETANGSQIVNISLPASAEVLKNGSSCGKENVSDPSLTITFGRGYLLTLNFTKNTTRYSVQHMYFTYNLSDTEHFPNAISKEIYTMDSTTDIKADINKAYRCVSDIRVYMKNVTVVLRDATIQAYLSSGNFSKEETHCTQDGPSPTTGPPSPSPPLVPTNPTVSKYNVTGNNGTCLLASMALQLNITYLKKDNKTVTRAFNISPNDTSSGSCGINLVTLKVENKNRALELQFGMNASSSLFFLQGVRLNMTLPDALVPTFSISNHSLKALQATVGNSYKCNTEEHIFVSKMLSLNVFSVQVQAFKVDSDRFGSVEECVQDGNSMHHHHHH
Kind of assay: ELISA.

For assay [2], the target named is T2, LAMP1::histag (human, UniProt P11279 29-382).
T2 construct: extracellular domain without signal peptide, C-terminal 6 His tag, made in HEK293 cells; also called recombinant human LAMP1; human LAMP1 (29-382)
T2 sequence: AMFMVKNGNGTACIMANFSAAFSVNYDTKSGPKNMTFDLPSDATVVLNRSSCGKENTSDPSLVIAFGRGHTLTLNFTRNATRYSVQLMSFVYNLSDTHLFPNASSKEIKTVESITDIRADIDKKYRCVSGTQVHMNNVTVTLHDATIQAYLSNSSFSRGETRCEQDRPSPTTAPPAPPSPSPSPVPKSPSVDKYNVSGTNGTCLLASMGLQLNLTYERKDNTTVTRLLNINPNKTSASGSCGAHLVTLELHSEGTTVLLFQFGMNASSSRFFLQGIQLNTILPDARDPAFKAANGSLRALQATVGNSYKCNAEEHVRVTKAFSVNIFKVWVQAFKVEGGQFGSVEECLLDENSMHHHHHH
The assay is described as follows: ELISA with LAMP1.

Assay [3] concerns the target T2, LAMP1::histag. The assay is described as follows: ELISA on secreted LAMP1.
In assay [4] the target is T3, mLAMP1_ΔGYQTI (mouse, UniProt P11438 25-369).
T3 construct: on cells; also called pXL6009; murine LAMP1; not shown: murine transmembrane domain and cytoplasmic tail with GYQTI replaced by 5 Ala
T3 sequence: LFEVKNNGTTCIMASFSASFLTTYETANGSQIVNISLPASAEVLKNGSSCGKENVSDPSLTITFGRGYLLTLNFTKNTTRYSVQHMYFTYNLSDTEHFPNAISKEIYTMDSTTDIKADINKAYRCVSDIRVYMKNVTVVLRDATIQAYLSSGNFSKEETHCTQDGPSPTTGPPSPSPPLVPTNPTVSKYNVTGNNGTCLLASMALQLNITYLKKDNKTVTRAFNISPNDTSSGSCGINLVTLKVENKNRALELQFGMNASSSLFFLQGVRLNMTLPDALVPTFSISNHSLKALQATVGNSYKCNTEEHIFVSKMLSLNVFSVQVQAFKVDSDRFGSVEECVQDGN
Kind of assay: flow cytometry, transfected 293-F cells, experiment 1.

The target in assay [5] is T4, mLAMP1_hseq6-11_ΔGYQTI (mouse; human, UniProt P11438 25-369).
T4 construct: on cells; also called pXL6041; not shown: murine transmembrane domain and cytoplasmic tail with GYQTI replaced by 5 Ala
T4 chain: T3 sequence with Y68H, L69T, K76R, T78A, S151N, G152S, N153S, K156R, E157G
The description is as above.

The target of assay [6] is T5, mLAMP1_hseq6_ΔGYQTI (mouse; human, UniProt P11438 25-369).
T5 construct: on cells; numbering read as for pXL6041; also called pXL6047; not shown: murine transmembrane domain and cytoplasmic tail with GYQTI replaced by 5 Ala
T5 chain: T3 sequence with Y68H, L69T, K76R, T78A
The description is as above.

Assay [7] deals with T6, mLAMP1_hseq11_ΔGYQTI (mouse; human, UniProt P11438 25-369).
T6 construct: on cells; numbering read as for pXL6041; also called pXL6048; not shown: murine transmembrane domain and cytoplasmic tail with GYQTI replaced by 5 Ala
T6 chain: T3 sequence with S151N, G152S, N153S, K156R, E157G
Described as above.

Positions count from the first letter of the chain named.

B1: MAb2 (antibody, mouse IgG1, kappa)
heavy: QVQLQQSAAELARPGASVKMSCKASGYTFTSYTMHWVKQRPGQGLEWIGYFNPSSGYPEYNQKFKDKTTLTADKSSNTAFIQLNSLTSEDSAVYYCSRGYYYGSRGYALDFWGQGASVTVSSAKTTPPSVYPLAPGSAAQTNSMVTLGCLVKGYFPEPVTVTWNSGSLSSGVHTFPAVLQSDLYTLSSSVTVPSSTWPSETVTCNVAHPASSTKVDKKIVPRDCGCKPCICTVPEVSSVFIFPPKPKDVLTITLTPKVTCVVVDISKDDPEVQFSWFVDDVEVHTAQTQPREEQFNSTFRSVSELPIMHQDWLNGKEFKCRVNSAAFPAPIEKTISKTKGRPKAPQVYTIPPPKEQMAKDKVSLTCMITDFFPEDITVEWQWNGQPAENYKNTQPIMDTDGSYFVYSKLNVQKSNWEAGNTFTCSVLHEGLHNHHTEKSLSHSPGK
light: NIVLTQSPVSLAVSLGQRATISCRASESVDINGNTFMHWYQQKPGQSPKLVIYAASNIESGVPARFSGSGSSTDFTFTIDPVEADDVATYYCQQNIEDPWTFGGGTKVEIKRADAAPTVSIFPPSSEQLTSGGASVVCFLNNFYPKDINVKWKIDGSERQNGVLNSWTDQDSKDSTYSMSSTLTLTKDEYERHNSYTCEATHKTSTSPIVKSFNRNEC
notes: murine monoclonal IgG, kappa, from hybridoma; also called murine MAb2
B1: the binding result in assay [1], in assay [4], in assay [5], in assay [6] and in assay [7] was “no binding” each time. Further, the EC50 in assay [2] was 0.25 nM; in assay [3], roughly 0.3 nM. In addition, the mean fluorescence in assay [4] stood at 21; in assay [5] it was 28; in assay [6], 25; in assay [7], 28.

B2: MAb1 (antibody, mouse IgG2a, kappa)
heavy: QVQLQQSGAELVKPGASVKMSCKASGYIFTNYNIHWVKKSPGQGLEWIGAIYPGNGDAPYSQKFKDKATLTADKSSSTTYMQLSRLTSEDSAVYYCVRANWDVAFAYWGQGTLVSVSAAKTTAPSVYPLAPVCGDTTGSSVTLGCLVKGYFPEPVTLTWNSGSLSSGVHTFPAVLQSDLYTLSSSVTVTSSTWPSQSITCNVAHPASSTKVDKKIEPRGPTIKPCPPCKCPAPNLLGGPSVFIFPPKIKDVLMISLSPIVTCVVVDVSEDDPDVQISWFVNNVEVHTAQTQTHREDYNSTLRVVSALPIQHQDWMSGKEFKCKVNNKDLPAPIERTISKPKGSVRAPQVYVLPPPEEEMTKKQVTLTCMVTDFMPEDIYVEWTNNGKTELNYKNTEPVLDSDGSYFMYSKLRVEKKNWVERNSYSCSVVHEGLHNHHTTKSFSRTPGK
light: DIQMTQSPPSLSASLGGKVTITCKASQDIDRYMAWYQDKPGKGPRLLIHDTSTLQPGIPSRFSGSGSGRDYSFSISNLEPEDIATYYCLQYDNLWTFGGGTKLEIKRADAAPTVSIFPPSSEQLTSGGASVVCFLNNFYPKDINVKWKIDGSERQNGVLNSWTDQDSKDSTYSMSSTLTLTKDEYERHNSYTCEATHKTSTSPIVKSFNRNEC
notes: murine monoclonal IgG, kappa, from hybridoma; also called murine MAb1
As to B2, the binding result in assay [1], in assay [4], in assay [6] and in assay [7] was “no binding” each time. The EC50 in assay [2] is 0.18 nM; in assay [3], roughly 0.2 nM. Also, the mean fluorescence in assay [4] was determined as 4; in assay [5], 680; in assay [6], 7; in assay [7], 6.

A word on the EC50: it is the concentration needed to bring the measured effect to its halfway point. Lower therefore signals an effect from little substance.
